According to paper PMC4132754 (Nucleic Acids Research, 2014):

B1: SBP-UPF1 WT (natural protein)
chain: MSVEAYGPSSQTLTFLDTEEAELLGADTQGSEFEFTDFTLPSQTQTPPGGPGGPGGGGAGGPGGAGAGAAAGQLDAQVGPEGILQNGAVDDSVAKTSQLLAELNFEEDEEDTYYTKDLPIHACSYCGIHDPACVVYCNTSKKWFCNGRGNTSGSHIVNHLVRAKCKEVTLHKDGPLGETVLECYNCGCRNVFLLGFIPAKADSVVVLLCRQPCASQSSLKDINWDSSQWQPLIQDRCFLSWLVKIPSEQEQLRARQITAQQINKLEELWKENPSATLEDLEKPGVDEEPQHVLLRYEDAYQYQNIFGPLVKLEADYDKKLKESQTQDNITVRWDLGLNKKRIAYFTLPKTDSDMRLMQGDEICLRYKGDLAPLWKGIGHVIKVPDNYGDEIAIELRSSVGAPVEVTHNFQVDFVWKSTSFDRMQSALKTFAVDETSVSGYIYHKLLGHEVEDVIIKCQLPKRFTAQGLPDLNHSQVYAVKTVLQRPLSLIQGPPGTGKTVTSATIVYHLARQGNGPVLVCAPSNIAVDQLTEKIHQTGLKVVRLCAKSREAIDSPVSFLALHNQIRNMDSMPELQKLQQLKDETGELSSADEKRYRALKRTAERELLMNADVICCTCVGAGDPRLAKMQFRSILIDESTQATEPECMVPVVLGAKQLILVGDHCQLGPVVMCKKAAKAGLSQSLFERLVVLGIRPIRLQVQYRMHPALSAFPSNIFYEGSLQNGVTAADRVKKGFDFQWPQPDKPMFFYVTQGQEEIASSGTSYLNRTEAANVEKITTKLLKAGAKPDQIGIITPYEGQRSYLVQYMQFSGSLHTKLYQEVEIASVDAFQGREKDFIILSCVRANEHQGIGFLNDPRRLNVALTRARYGVIIVGNPKALSKQPLWNHLLNYYKEQKVLVEGPLNNLRESLMQFSKPRKLVNTINPGARFMTTAMYDAREAIIPGSVYDRSSQGRPSSMYFQTHDQIGMISAGPSHVAAMNIPIPFNLVMPPMPPPGYFGQANGPAAGRGTPKGKTGRGGRQKNRFGLPGPSQTNLPNSQASQDVASQPFSQGALTQGYISMSQPSQMSQPGLSQPELSQDSYLGDEFKSQIDVALSQDSTYQGERAYQHGGVTGLSQY
B2: SBP-UPF1 Δ1C (natural protein)
chain: MSVEAYGPSSQTLTFLDTEEAELLGADTQGSEFEFTDFTLPSQTQTPPGGPGGPGGGGAGGPGGAGAGAAAGQLDAQVGPEGILQNGAVDDSVAKTSQLLAELNFEEDEEDTYYTKDLPIHACSYCGIHDPACVVYCNTSKKWFCNGRGNTSGSHIVNHLVRAKCKEVTLHKDGPLGETVLECYNCGCRNVFLLGFIPAKADSVVVLLCRQPCASQSSLKDINWDSSQWQPLIQDRCFLSWLVKIPSEQEQLRARQITAQQINKLEELWKENPSATLEDLEKPGVDEEPQHVLLRYEDAYQYQNIFGPLVKLEADYDKKLKESQTQDNITVRWDLGLNKKRIAYFTLPKTDSDMRLMQGDEICLRYKGDLAPLWKGIGHVIKVPDNYGDEIAIELRSSVGAPVEVTHNFQVDFVWKSTSFDRMQSALKTFAVDETSVSGYIYHKLLGHEVEDVIIKCQLPKRFTAQGLPDLNHSQVYAVKTVLQRPLSLIQGPPGTGKTVTSATIVYHLARQGNGPVLVCAPSNIAVDQLTEKIHQTGLKVVRLCAKSREAIDSPVSFLANADVICCTCVGAGDPRLAKMQFRSILIDESTQATEPECMVPVVLGAKQLILVGDHCQLGPVVMCKKAAKAGLSQSLFERLVVLGIRPIRLQVQYRMHPALSAFPSNIFYEGSLQNGVTAADRVKKGFDFQWPQPDKPMFFYVTQGQEEIASSGTSYLNRTEAANVEKITTKLLKAGAKPDQIGIITPYEGQRSYLVQYMQFSGSLHTKLYQEVEIASVDAFQGREKDFIILSCVRANEHQGIGFLNDPRRLNVALTRARYGVIIVGNPKALSKQPLWNHLLNYYKEQKVLVEGPLNNLRESLMQFSKPRKLVNTINPGARFMTTAMYDAREAIIPGSVYDRSSQGRPSSMYFQTHDQIGMISAGPSHVAAMNIPIPFNLVMPPMPPPGYFGQANGPAAGRGTPKGKTGRGGRQKNRFGLPGPSQTNLPNSQASQDVASQPFSQGALTQGYISMSQPSQMSQPGLSQPELSQDSYLGDEFKSQIDVALSQDSTYQGERAYQHGGVTGLSQY
B3: SBP-UPF1 ΔStalkΔSQ1 (domain or fragment)
chain: MSVEAYGPSSQTLTFLDTEEAELLGADTQGSEFEFTDFTLPSQTQTPPGGPGGPGGGGAGGPGGAGAGAAAGQLDAQVGPEGILQNGAVDDSVAKTSQLLAELNFEEDEEDTYYTKDLPIHACSYCGIHDPACVVYCNTSKKWFCNGRGNTSGSHIVNHLVRAKCKEVTLHKDGPLGETVLECYNCGCRNVFLLGFIPAKADSVVVLLCRQPCASQSSLKDINWDSSQWQPLIQDRCFLSWLVKIPSEQEQLRARQITAQQINKLEELWKETSVSGYIYHKLLGHEVEDVIIKCQLPKRFTAQGLPDLNHSQVYAVKTVLQRPLSLIQGPPGTGKTVTSATIVYHLARQGNGPVLVCAPSNIAVDQLTEKIHQTGLKVVRLCAKSREAIDSPVSFLALHNQIRNMDSMPELQKLQQLKDETGELSSADEKRYRALKRTAERELLMNADVICCTCVGAGDPRLAKMQFRSILIDESTQATEPECMVPVVLGAKQLILVGDHCQLGPVVMCKKAAKAGLSQSLFERLVVLGIRPIRLQVQYRMHPALSAFPSNIFYEGSLQNGVTAADRVKKGFDFQWPQPDKPMFFYVTQGQEEIASSGTSYLNRTEAANVEKITTKLLKAGAKPDQIGIITPYEGQRSYLVQYMQFSGSLHTKLYQEVEIASVDAFQGREKDFIILSCVRANEHQGIGFLNDPRRLNVALTRARYGVIIVGNPKALSKQPLWNHLLNYYKEQKVLVEGPLNNLRESLMQFSKPRKLVNTINPGARFMTTAMYDAREAIIPGSVYDRSSQGRPSSMYFQTHDQIGMISAGPSHVAAMNIPIPFNLVMPPMPPPGYFGQANGPAAGRGTPKGKTGRGG

Biological target: Flag-HA-SBP-SMG6 (human, UniProt Q86US8 1-1419)
Experiment: pull-down

Chain of Flag-HA-SBP-SMG6 (Q86US8 whole entry): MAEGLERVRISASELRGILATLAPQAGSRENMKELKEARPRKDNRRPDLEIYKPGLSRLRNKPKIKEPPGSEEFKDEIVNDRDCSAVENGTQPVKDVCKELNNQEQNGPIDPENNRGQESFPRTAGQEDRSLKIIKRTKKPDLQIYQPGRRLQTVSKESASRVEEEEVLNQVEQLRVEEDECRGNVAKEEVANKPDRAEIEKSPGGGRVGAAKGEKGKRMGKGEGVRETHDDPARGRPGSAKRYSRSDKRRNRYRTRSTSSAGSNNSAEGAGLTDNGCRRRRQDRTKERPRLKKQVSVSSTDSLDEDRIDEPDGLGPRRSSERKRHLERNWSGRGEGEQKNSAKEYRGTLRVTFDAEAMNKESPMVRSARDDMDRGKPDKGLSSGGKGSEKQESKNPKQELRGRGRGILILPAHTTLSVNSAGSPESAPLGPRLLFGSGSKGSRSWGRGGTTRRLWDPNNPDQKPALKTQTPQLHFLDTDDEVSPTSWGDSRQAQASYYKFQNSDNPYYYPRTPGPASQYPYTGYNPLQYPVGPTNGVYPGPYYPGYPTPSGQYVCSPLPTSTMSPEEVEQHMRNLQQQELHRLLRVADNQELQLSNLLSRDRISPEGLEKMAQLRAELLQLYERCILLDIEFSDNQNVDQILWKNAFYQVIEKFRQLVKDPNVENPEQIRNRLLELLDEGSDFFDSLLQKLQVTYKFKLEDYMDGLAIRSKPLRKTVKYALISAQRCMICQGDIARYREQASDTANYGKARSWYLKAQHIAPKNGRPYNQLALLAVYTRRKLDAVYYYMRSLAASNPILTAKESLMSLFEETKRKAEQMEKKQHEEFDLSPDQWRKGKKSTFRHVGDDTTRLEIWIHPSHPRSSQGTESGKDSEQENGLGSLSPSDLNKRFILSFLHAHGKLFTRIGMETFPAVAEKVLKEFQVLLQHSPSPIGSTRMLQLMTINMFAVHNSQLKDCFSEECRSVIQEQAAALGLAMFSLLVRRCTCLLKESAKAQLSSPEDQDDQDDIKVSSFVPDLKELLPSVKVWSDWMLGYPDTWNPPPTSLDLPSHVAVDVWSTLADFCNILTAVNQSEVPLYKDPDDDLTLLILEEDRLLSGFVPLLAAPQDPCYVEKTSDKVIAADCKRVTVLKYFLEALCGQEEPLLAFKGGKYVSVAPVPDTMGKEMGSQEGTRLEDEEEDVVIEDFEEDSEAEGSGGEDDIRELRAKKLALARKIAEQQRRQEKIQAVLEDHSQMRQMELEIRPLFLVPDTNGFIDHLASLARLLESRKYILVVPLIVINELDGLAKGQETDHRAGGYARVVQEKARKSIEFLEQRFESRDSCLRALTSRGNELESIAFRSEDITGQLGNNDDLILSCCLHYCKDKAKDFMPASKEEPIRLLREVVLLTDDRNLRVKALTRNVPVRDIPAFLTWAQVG

Binding result, binds:
B1
B2
B3
